Assay results from US20030236190A1.
Each block holds one binder with its values, some of them ahead of it. No end group written: not given here.

Tests used:
Soluble IGF-1R [1] = molecular target: Soluble IGF-1R (UniProt P08069); experiment: phage ELISA; ratio over background for IGF-1R divided by that for IR
Soluble IGF-1R [2] = molecular target: Soluble IGF-1R (UniProt P08069)
[3] = molecular target: T1, Soluble IGF-1R (R&D Systems, Cat. # 391-GR/CF); recombinant human IGF-1R (human), P08069; experiment: phage ELISA, vs IR
[4] = molecular target: T2, Insulin receptor prepared according to Bass et al., 1996: soluble human insulin receptor-immunoglobulin heavy chain chimera (human), P06213; experiment: phage ELISA vs milk
[5] = molecular target: T1, Soluble IGF-1R (R&D Systems, Cat. # …); experiment: phage ELISA vs milk
[6] = molecular target: T2, Insulin receptor prepared according to …; experiment: phage ELISA, vs IGF-1R
[7] = molecular target: soluble human insulin mini-receptor (mIR) (human) (UniProt P06213); experiment: FP competition vs FITC-RP9, mIR
[8] = molecular target: Insulin receptor prepared according to Bass et al., 1996: soluble human insulin receptor-immunoglobulin heavy chain chimera (human) (UniProt P06213); experiment: phage ELISA, vs IGF-1R
[9] = molecular target: Insulin receptor prepared according to Bass et al., 1996: soluble human insulin receptor-immunoglobulin heavy chain chimera (human) (UniProt P06213); experiment: phage ELISA vs milk
[10] = molecular target: soluble human insulin receptor-immunoglobulin heavy chain chimera (sIR-Fc) (human), P06213; experiment: fluorescence polarization competition with FITC-RP9 for sIR-Fc; details: remark: other sources report otherwise

Binder: RGAVAGFHDQFYDWFDRQVSRVHKFG [H2CA-4-E9-IGFR]
- IR/IGF-1R Comparison [8]: 0.3
- Ratio over Background [9]: 1.9 fold

Binder: YRGMLVLGRISGGAGKAASERPARIGQKVSAVNFYDWFV [A6L-0-H3-IR]
- IR/IGF-1R Comparison [8]: 0.1
- Ratio over Background [9]: 2 fold

Binder: CWARPCGDAANFYDWFVQQAS [C1]
- IC50 [10]: 52 nM

Results, then the binder that gave them:

- IGF-1R/IR ratio comparison (Soluble IGF-1R [1]): 1.4
- ratio over background, IGF-1R (ratio over background) (Soluble IGF-1R [2]): 2
B1: 26L-3-G5-IR (peptide)
peptide: AETSAQVGWQRLWSVWPGDHWSTLDPFYHKLSELLRESGA
modifications: not fully specified (residue 27, N-terminus, C-terminus); printed as AETSAQVGWQRLWSVWPGDHWSTLDP9YHKLSELLRESGA

- IGF-1R/IR Comparison [3]: 9.4
- Ratio over Background [4]: 1.1 fold
- Ratio over Background [5]: 10.6 fold
- IR/IGF-1R Comparison [6]: 0.1
B2: 20E2B-2-B11-IGFR (peptide)
peptide: VVTPVNFYRALEALVRGXRLG
modifications: not fully specified; printed as VVTPVNFYRALEALVRG.RLG; X: residue not identified in the source

- IC50 [7]: 770 nM
Binder: FHENFYDWFVQRVSKK [H2C]

- IR/IGF-1R Comparison [8]: 0
- Ratio over Background [9]: 1 fold
Binder: CCTTEMVVMDARDDPFYHKLSELVTGG [B6Hα-1-B5-IR]
